Six sequences from a protein production outcome set (Wang et al. 2014) can be followed below.

The nature of the data set: label from the status in PepcDB records.

“MRNVLITGATSGIGLSLVEKYLQAGDKVYACGRNFQAYLKSSSLIDAEKSDKLVKIVFDMNHHDAIIDVLTEVESLDIAILNAGTCEYIDDAMGFDAELFERVINTNVISIGYCLQALLPKMKQKGHLALMGSSAAFVPFQRAEAYGASKAAIHYLAQSLQLDIPKERLTISVIAPGFVKTPLTDKNDFPMPMLIEPDKAADHIINGINNNKQHIHFPFPFTRFLILMGALPSCIWQWMALRMKRK”: the protein production result is “failed”.
Next, “MRPIKLLPDGLISQIAAGEVIERPASVLKELLENAIDAGTTDISVNIAQGGLKLIRVTDNGGGISGEELPLALTRHATSKIASQEDLYRITSLGFRGEGLASIASVSNLLLISHQPGGKHAWQIRSEGIRVMQPEPSSHAAGTTVEVRDLFFNLPARRKFLKTEATEFAHCEEIIRRMALSHAGIAFTLRHNGNLRGHWQSAEAAVRIKTVLGEEFTRSAAWIDERSAGIGLQGMLALPAYSRAARDMQYFFVNGRFVRDKLITHALREAYRDVLHLDRHAAFVLYLDIDPEQVDVNVHPTKTEIRFREARAIHQFIYHGVSKALSLPRSGTELSQSSSQLMADDIVPPAEKRVPAAPMLNYPRQTGLPSEMIAQPFNFYQVLSGSESDSTATQNPFRQTGAGESNEHPALPPLGFALGQLHGVYILAQNWKGLVIVDMHAAHERIVYEQLKLQMDEQTLSAQRLLIPVTFHADSLDIATAEENQSLLQQLGFEVTVLTATTLAVRAVPAILQDADTEKLVCNVLDEIRNGDPGQLLAARRNELLATMACHGAVRANRPLTLIEMNELLRKMEVTERSDQCNHGRPTWFEISLAELDKMFMRGK”: “failed”; “MRPMASELTTFVLIFGTLLFVFGLFSRKIEGTVVTIQMIFLAAGILLSPIGLNLISLSPRSGLVLGVIKVALVLTFFSDASLIGLHSLFLKERLSVRLLFLGLSLTICLGTVFAALLFADITFIDAILLGIILAPTDASLAQKVVEERQVPTLIRNGLIIESGLNDGAVMPLFIFVVALEAVEKLNRPLGTFLAIALEQIGFGIFVGIIIGLVGGWLFSRAFKAGSMSEVYYRTEFVALALISWLVADGVGGNGFIAAFIAGLATRIEDRQVTEEEVILLPRAEGNVLNLAVLFILGVMSAEYLPLVDLKIFAYAVLSLTVVRMVPVTISLIGSHLNIKTGLFMGWFGPRGLASIVLMLITVERIEGIRVSGTIGLAVITTVIISVFAHGITAGPVSNWYARIIATLPPDAPEKESVEELTALQGIETTENIHKEPY”: “failed”; “MRPRPDAALAMSSGPPAARKPGVVQPALLNMSAWLRPEPGLTVVTPLVRALVLISAFSPQERWLGNGQLAQRTGLPPSTVSRIAQSLVHLGYLLHDGAERKYRLAPAVLGLGYAAIAHSAIQGLAGERMAAFARQHKVHVCLAARDRLDLVVLECRRSLECPVALPLHVGMRVGIAQSPMGWSMLAALPELERCYLLDNVERRMARDWSRLRRRVWEGMAQVGETGYCTSIGEWNPELGALATPVLLEGSSPFVLACIGTSQTMTRARVARELGPRLLAMREALQTEFNVIGH”: “failed”.
Next, “MRPTPYLAPIPVRGRISRPQPKGLPVINMGYNELPYPPLPAIRAAMEETAERAQSYGSPHCDALRDALGAAHGLDPEQIVCGNGSEELLDVIARCFARPGDEILISEFGYIQFALTANRVGATLVKARERDNTSDVDALLAAVSEHTRLLFLANPNNPTGTMLEIDELSRLARDLPAQVVLVLDLAYGEFAAPDYCAAVHSLAANHENIVVTRTFSKAYGLAGARVGWCHAPAWMVPVLYAARGMGTVNALAQAGAVAGLADPAAIQERVDEIVSERARLTGALGQLGLVVTPSRTNFLMARFREGDAARTEALVEHLFEDAGIVVNRTREAGLEAFFRFSLSLPAHNDLLLDSIRRFIGQG”: “failed”; “MRQSCLMTEQLQDIKTLIEQGDTERAIHALTNFIRNDAHVNDEPYYLLGNAYRKMGDWQQALNNYLEAIERNPESPAVSARNMIMNILNFYNKDMYNQ”: “failed”.
